Measurements as given in IntAct's records for PubMed 23376919.

B1: Interleukin-1 receptor-associated kinase 3 (Mus musculus), Q8K4B2 (parent)
chain: MAGRCGARGALSPQLLLFDLPPALLGELCGILDSCDGPLGWRGLAERLSNSWLDVRHIEKYVNQGKSGTRELLWSWAQKNKTIGDLLEVLQDMGHQRAIHLIINYGVSWTPSVQTHHELPFPSFPPEVKHACRENDPGPLEPANVTVDNVLVPEHNEKGTLQKTPISFQSILEGTKHFHKDFLIGEGEIFEVYRVDIRNQAYAVKLFKQEKKMQLKKHWKRFLSELEVLLLFRHPHILELAAYFTETEKLCLVYPYMSNGTLFDRLQCTNGTTPLSWHVRISVLIGIAKAIQYLHNTQPCAVICGNVSSANILLDDQLQPKLTDFAAAHFRPNLEQQSSTINMTGGGRKHLWYMPEEYIRQGRLSVKTDVYSFGIVIMEVLTGCKVVLDDPKHVQLRDLLMELMEKRGLDSCLSFLDRKIPPCPRNFSAKLFSLAGRCVATKAKLRPTMDEVLSSLESTQPSLYFAEDPPTSLKSFRCPSPLFLDNVPSIPVEDDENQNNHSVPPKEVLGTDRVTQKTPFECSQSEVTFLGLDRNRGNRGSEADCNVPSSSHEECWSPELVAPSQDLSPTVISLGSSWEVPGHSYGSKPMEKRCSSGLFCSEHEQSKKQ
partner: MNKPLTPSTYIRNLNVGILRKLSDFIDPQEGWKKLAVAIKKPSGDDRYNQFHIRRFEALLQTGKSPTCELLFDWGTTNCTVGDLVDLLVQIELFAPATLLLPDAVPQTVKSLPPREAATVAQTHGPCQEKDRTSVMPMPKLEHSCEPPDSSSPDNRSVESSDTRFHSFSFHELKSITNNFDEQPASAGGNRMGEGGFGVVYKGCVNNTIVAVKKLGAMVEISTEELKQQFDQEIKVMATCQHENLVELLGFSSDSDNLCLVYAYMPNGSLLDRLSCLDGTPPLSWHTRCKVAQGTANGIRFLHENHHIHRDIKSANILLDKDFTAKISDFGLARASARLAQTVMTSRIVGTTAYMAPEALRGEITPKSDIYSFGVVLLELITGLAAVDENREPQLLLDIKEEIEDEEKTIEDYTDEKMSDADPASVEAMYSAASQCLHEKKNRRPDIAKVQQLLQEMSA
B2: Interleukin-1 receptor-associated kinase 3 (Mus musculus), Q8K4B2 (parent)
chain: B1 chain
partner: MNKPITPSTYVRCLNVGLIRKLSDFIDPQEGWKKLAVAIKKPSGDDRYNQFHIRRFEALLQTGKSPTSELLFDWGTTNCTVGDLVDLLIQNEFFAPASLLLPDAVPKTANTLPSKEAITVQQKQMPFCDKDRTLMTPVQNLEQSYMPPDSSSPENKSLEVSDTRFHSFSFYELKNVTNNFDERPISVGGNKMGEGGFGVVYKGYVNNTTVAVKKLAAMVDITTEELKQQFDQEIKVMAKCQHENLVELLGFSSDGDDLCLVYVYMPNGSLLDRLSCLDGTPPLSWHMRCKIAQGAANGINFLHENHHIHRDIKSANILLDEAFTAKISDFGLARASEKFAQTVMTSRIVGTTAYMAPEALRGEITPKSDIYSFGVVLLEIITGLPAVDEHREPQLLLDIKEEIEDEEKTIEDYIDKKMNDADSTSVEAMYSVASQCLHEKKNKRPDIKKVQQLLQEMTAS
B3: Interleukin-1 receptor-associated kinase 4 (Mus musculus), Q8R4K2 (parent)
chain: B1 partner
partner: B1 chain

Variants of: B1
Details: with irak4_mouse Irak4, Q8R4K2

Q: With E71A as the variant, how does the “effect of a mutation on the interaction” value read?
A: decreasing interaction

Variants of: B1
Details: with irak4_mouse Irak4, Q8R4K2
Remark: another data set of the same source

Q: With Q78G as the variant, how does the “effect of a mutation on the interaction” value read?
A: decreasing interaction

Variants of: B1
Details: with irak4_mouse Irak4, Q8R4K2
Remark: another data set of the same source

Q: How did the “effect of a mutation on the interaction” value turn out when W74A was run?
A: disrupting interaction

Variants of: B1
Details: with irak4_mouse Irak4, Q8R4K2
Remark: another data set of the same source

Q: For E71A;Q78G, which “effect of a mutation on the interaction” value is on record?
A: disrupting interaction

Variants of: B2
Details: with irak4_human IRAK4, Q9NWZ3

Q: Which “effect of a mutation on the interaction” value does the source give for E71A;Q78G here?
A: decreasing interaction

Variants of: B2
Details: with irak4_human IRAK4, Q9NWZ3
Remark: another data set of the same source

Q: How did the “effect of a mutation on the interaction” value turn out when E71A was run?
A: decreasing interaction

Variants of: B2
Details: with irak4_human IRAK4, Q9NWZ3
Remark: another data set of the same source

Q: How did the “effect of a mutation on the interaction” value turn out when Q78G was run?
A: decreasing interaction

Variants of: B2
Details: with irak4_human IRAK4, Q9NWZ3
Remark: another data set of the same source

Q: Which “effect of a mutation on the interaction” value does the source give for W74A here?
A: disrupting interaction

Variants of: B3
Details: with irak3_mouse Irak3, Q8K4B2

Q: How did the “effect of a mutation on the interaction” value turn out when F25D was run?
A: decreasing interaction
